Assay results as given in EP4361176A1 (CHUGAI SEIYAKU KABUSHIKI KAISHA, dated 2024).

T1: human CTLA4 (soluble analyte of the Biacore assays of Reference Example 3-3) (human, UniProt P16410 36-161)
T1 construct: also called hCTLA4
T1 sequence: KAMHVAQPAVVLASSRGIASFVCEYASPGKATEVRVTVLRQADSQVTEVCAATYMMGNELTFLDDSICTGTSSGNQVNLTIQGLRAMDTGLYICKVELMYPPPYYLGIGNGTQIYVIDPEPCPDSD

T2: human FcγRIIa H extracellular domain (human, UniProt P12318 34-217)
T2 construct: extracellular domain; Made by the method of WO2014104165; also called hFcγR IIa H; FcyRIIaH
T2 sequence (looked up): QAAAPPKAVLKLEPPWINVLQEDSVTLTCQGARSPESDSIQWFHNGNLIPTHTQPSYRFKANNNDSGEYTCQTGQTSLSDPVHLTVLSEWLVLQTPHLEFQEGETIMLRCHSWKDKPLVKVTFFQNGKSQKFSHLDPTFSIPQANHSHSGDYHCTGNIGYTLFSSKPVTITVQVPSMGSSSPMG

T3: human FcγRIIb extracellular domain (human, UniProt P31994 43-217)
T3 construct: extracellular domain; Made by the method of WO2014104165; also called hFcγR IIb; FcyRIIb
T3 sequence (looked up): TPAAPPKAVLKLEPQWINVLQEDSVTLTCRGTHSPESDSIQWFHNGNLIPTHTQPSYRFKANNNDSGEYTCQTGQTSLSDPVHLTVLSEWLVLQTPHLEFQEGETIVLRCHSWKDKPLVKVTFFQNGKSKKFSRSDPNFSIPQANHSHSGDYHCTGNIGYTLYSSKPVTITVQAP


Tests used:
mCTLA4-His = target: T4, mCTLA4-His (mouse, UniProt P09793 36-161); test: SPR Biacore T200, 100 uM ATP
T4 construct: Mouse CTLA4 extracellular region linked with a His-tag; also called mouse CTLA4; Mouse CTLA4

[1] = target: T5, human CTLA4 (hCTLA4-His-BAP: human CTLA4 extracellular region with C-terminal His-tag and BAP-tag) (human); test: SPR (Biacore T200, 37C), antibody captured, human CTLA4 at 1000 nM, ATP 100 uM
T5 construct: This tie is an inference

[2] = target: T5, human CTLA4 (hCTLA4-His-BAP: human …); test: SPR (Biacore T200, 37C), antibody captured, human CTLA4 at 1000 nM, no ATP
[3] = target: T5, human CTLA4 (hCTLA4-His-BAP: human …); test: SPR (Biacore T200, 37C), antibody captured, human CTLA4 at 1000 nM, ATP 1 uM
[4] = target: T5, human CTLA4 (hCTLA4-His-BAP: human …); test: SPR (Biacore T200, 37C), antibody captured, human CTLA4 at 1000 nM, ATP 10 uM
[5] = target: T1, human CTLA4 (soluble analyte of the …); test: SPR Biacore T200
[6] = target: T2, human FcγRIIa H extracellular domain; test: SPR (Biacore 8K+), captured antibody, 1:1 Langmuir model
[7] = target: T3, human FcγRIIb extracellular domain; test: SPR (Biacore 8K+), captured antibody, steady state affinity model
[8] = target: T3, human FcγRIIb extracellular domain; test: SPR; KD of G1d divided by KD of this antibody
[9] = target: T2, human FcγRIIa H extracellular domain; test: SPR; KD of G1d divided by KD of this antibody

Binding to Human CTLA4 (binding amount per unit amount of antibody) [1] | Binding to Human CTLA4 (binding amount per unit amount of antibody) [2] | Binding to Human CTLA4 (binding amount per unit amount of antibody) [3] | Binding to Human CTLA4 (binding amount per unit amount of antibody) [4] | binding result [5] | Binder | other results
 |  |  |  | binds | 04H1389v373-G1m/04L1086-lam1 (antibody, human IgG1, lambda) heavy: not shown light: QSALTQPPSASGSPGQTVTISCDGPSTGVGDYNYVHWYQQHPGKAPKLMIYFTSKKPSGVPDRFSGSKSGNTASLTVSGLQAEDEADYFCQTYAAPLGPMFGGGTKLTVLGQPKAAPSVTLFPPSSEELQANKATLVCLISDFYPGAVTVAWKADSSPVKAGVETTTPSKQSNNKYAASSYLSLTPEQWKSHRSYSCQVTHEGSTVEKTVAPTECS | 
 |  |  |  | binds | 04H1637-G1m/04L1086-lam1 (antibody, human IgG1, lambda) heavy: not shown light: QSALTQPPSASGSPGQTVTISCDGPSTGVGDYNYVHWYQQHPGKAPKLMIYFTSKKPSGVPDRFSGSKSGNTASLTVSGLQAEDEADYFCQTYAAPLGPMFGGGTKLTVLGQPKAAPSVTLFPPSSEELQANKATLVCLISDFYPGAVTVAWKADSSPVKAGVETTTPSKQSNNKYAASSYLSLTPEQWKSHRSYSCQVTHEGSTVEKTVAPTECS | 

Continued, binder first:

Binder | Binding to Human CTLA4 (binding amount per unit amount of antibody) [1] | Binding to Human CTLA4 (binding amount per unit amount of antibody) [2] | Binding to Human CTLA4 (binding amount per unit amount of antibody) [3] | Binding to Human CTLA4 (binding amount per unit amount of antibody) [4] | binding result [5] | other results
04H1208-G1m/04L1407-k0MT (antibody, human IgG1, kappa, V domains shown) VH: EVQLVESGGGLVKPGGSLRLSCAASGFTFSSKTMNWVRQAPGKGLEWVSSISTRSGYIYYARSVKGRFTISRDNAKNSLYLQMNSLRAEDTAVYYCARYGKREDMLWVFDYWGQGTLVTVSS VL: DIVMTQSPLSLPVTPGEPASISCDGPSTDVGDYNWVHWYQQKPGQAPRLLIYYTSSKPEGVPDRFSGSGSGTDFTLKISRVEAEDVGVYYCQTYAAPLGPTFGQGTKLEIKR |  |  |  |  |  | fold weaker binding to mouse CTLA4 than to human CTLA4 (mCTLA4-His): ~2 fold
04H1389-G1m/04L1086-lam1 (antibody, human IgG1, lambda, V domains shown, Human IgG1 (G1m), human lambda) VH: EVQLVESGGGLVKPGGSLRLSCAASGFTFSSKTMNWVRQAPGKGLEWVSSISTQSHYIYYAESVKGRFTISRDNAKNSLYLQMNSLRAEDTAVYYCARYGKREDMLWVFDYWGQGTLVTVSS VL: QSALTQPPSASGSPGQTVTISCDGPSTGVGDYNYVHWYQQHPGKAPKLMIYFTSKKPSGVPDRFSGSKSGNTASLTVSGLQAEDEADYFCQTYAAPLGPMFGGGTKLTVLG | 0.193 | 0.022 | 0.138 | 0.189 |  | 
04H1389-G1m/04L1305-k0MT (antibody, human IgG1, kappa, Human IgG1 (G1m), human kappa) heavy: not shown light: DIVMTQSPLSLPVTPGEPASISCDGPSTGVGDYNYVHWYQQKPGQAPRLLIYFTSKKPSGVPDRFSGSGSGTDFTLKISRVEAEDVGVYYCQTYAAPLGPMFGQGTKLEIKRTVAAPSVFIFPPSDEQLKSGTASVVCLLNNFYPREAKVQWKVDNALQSGNSQESVTEQDSKDSTYSLSSTLTLSKADYEKHKVYACEVTHQGLSSPVTKSFNRGEC | 0.151 | 0.03 | 0.12 | 0.154 |  | 
H240-G1d/L73-k_glycomab (antibody, fucose-deficient (afucosylated) Fc sugar chain) chain 1: not shown chain 2: DIQMTQSPSSLSASVGDRVTITCRASQDIHKYIAWYQQKPGQAPRLLIQYTSTLQPGVPSRFSGSGSGTDYTFTISSLQPEDIATYYCLQYEQLRTFGGGTKVEIK |  |  |  |  |  | Kd [6]: 0.999 µM; Kd [7]: 5.65 µM; Relative value to KD between G1d and hFcgRs [8]: 1.8; Relative value to KD between G1d and hFcgRs [9]: 1.1
